{
  "source": "paper PMC2938230",
  "about": "(Nucleic Acids Research, 2010)",
  "target": "T1, GAL4 DBD-hRARγ (human, UniProt P13631 1-454)",
  "T1 sequence (looked up)": "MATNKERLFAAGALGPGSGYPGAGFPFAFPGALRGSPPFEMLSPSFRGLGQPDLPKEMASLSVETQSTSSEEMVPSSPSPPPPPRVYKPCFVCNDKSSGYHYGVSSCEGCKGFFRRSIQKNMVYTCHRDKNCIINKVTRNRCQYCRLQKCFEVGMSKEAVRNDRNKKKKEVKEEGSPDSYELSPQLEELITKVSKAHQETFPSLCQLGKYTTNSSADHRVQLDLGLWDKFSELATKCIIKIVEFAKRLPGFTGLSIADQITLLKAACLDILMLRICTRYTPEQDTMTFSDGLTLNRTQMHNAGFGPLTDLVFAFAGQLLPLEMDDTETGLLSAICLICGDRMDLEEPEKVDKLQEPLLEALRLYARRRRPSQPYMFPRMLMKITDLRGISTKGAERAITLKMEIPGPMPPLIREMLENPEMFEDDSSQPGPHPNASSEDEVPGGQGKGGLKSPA",
  "experiment": "two-hybrid",
  "data": [
    {"binder": "GAL4 AD-hADA3 (pACT2) (natural protein, human, UniProt O75528-1 1-432, looked up) MSELKDCPLQFHDFKSVDHLKVCPRYTAVLARSEDDGIGIEELDTLQLELETLLSSASRRLRVLEAETQILTDWQDKKGDRRFLKLGRDHELGAPPKHGKPKKQKLEGKAGHGPGPGPGRPKSKNLQPKIQEYEFTDDPIDVPRIPKNDAPNRFWASVEPYCADITSEEVRTLEELLKPPEDEAEHYKIPPLGKHYSQRWAQEDLLEEQKDGARAAAVADKKKGLMGPLTELDTKDVDALLKKSEAQHEQPEDGCPFGALTQRLLQALVEENIISPMEDSPIPDMSGKESGADGASTSPRNQNKPFSVPHTKSLESRIKEELIAQGLLESEDRPAEDSEDEVLAELRKRQAELKALSAHNRTKKHDLLRLAKEEVSRQELRQRVRMADNEVMDAFRKIMAARQKKRTPTKKEKDQAWKTLKERESILKLLDG", "values": [
      {"measurement": "fold interaction relative to RARα", "result": 3, "unit": "fold"}
    ]}
  ]
}
